Measurements as given in patent publication US20240294651A1 (KYMAB, published 2024).
Substitutions are numbered along the chain they refer to.

B1: CL-82577 (antibody, human IgG4 S228P, kappa, V domains shown)
VH: QVQLQESGPGLVKPSQTLSLTCTVSGGSISSGGYYWTWIRQLPGKGLEWIGYMSYSGNTFYSPSLKSRFTISGDTSENQFSLKVNSVTSADTAIYYCARDRRIPMLRGIKGYYYGMDVWGQGTTVTVSS
VL: not shown
notes: Tested in human IgG4-PE format
B2: CL-82571 (antibody, human IgG4 S228P, kappa, V domains shown)
VH: EVQLVESGGGLVQPGGSLKLSCAASGFTFSGSAMHWVRQASGKGLEWVGRIRSKANKYATAYAASVKGRFTISRDDSKNTAYVQMKSLKTEDTAVYYCTWELSNYDILTGFYYGMDVWGQGTTVTVSS
VL: DIQMTQSPSTLSASVGDRVTITCRASQSISNWLAWYQQKPGKAPKVLIYKASSLESGVPSRFSGSGSGTEFTLTISSLQPDDFATYYCQQYNSFSWTFGQGTKVEIKR
notes: as for B1
B3: CL-82517 (antibody, human IgG4 S228P, kappa, V domains shown)
VH: EVQLVESGGGLVKPGGSLRLSCAASGFTFSSYSMNWVRQAPGKGLEWVSSISSSRRYIYYADSVKGRFTISRDNAKNSLYLQMNSLRAEDTAVYYCARAYGQVAPYYYYGMDVWGQGTTVTVSS
VL: AIQLTQSPSSLSASVGDRVTITCRASQGISSALAWYQQKPGKAPKLLIYDASSLESGVPSRFSGSGSGTDFTLTISSLQPEDFATYYCQQFNSYPLTFGGGTKVEIKR
notes: as for B1
B4: CL-82473 (antibody, human IgG4 S228P, kappa, V domains shown)
VH: QVQLVESGGGVVQPGRSLRLSCAASGFTFSSYGMHWVRQAPGKGLEWVTVILYGGSNKYYADSVKGRFTISRDNSKNTLYLQMNSLRAEDTAVYYCARGMLTYYYSSGFDYWGQGTLVTVSS
VL: not shown
notes: as for B1
B5: CL-82455 (antibody, human IgG4 S228P, kappa, V domains shown)
VH: QVQLVESGGGVVQPGRSLRLSCAASGFTFNNYGMHWVRQAPGKGLEWVAVIWNDGSNKYYGDSVKGRFTISRDNSKNTLYLQMNSLRAEDTAVYYCARGGGYYGSGKHYRGYYYNGMGVWGQGTPVTVSS
VL: EIVMTQSPATLSVSPGERATLSCRASQSVSSNLAWYQQKPGQAPRLLIYGASTRATGIPARFSGSGSGTEVTLTISSLQSEDFTIYYCQQYNNWPWTFGQGTKVDIKR
B6: CL-82583 (antibody, human IgG4 S228P, kappa)
heavy: not shown
light: DIQMTQSPSSLSASVGDRVTITCRASQGVRDDLGWYQQKPGKAPKRLIYAASSLQSGVPSRFSGSGSGTEFTLTISSLQPEDFATYYCLQHNSYPFTFGPGTKVDIKRTVAAPSVFIFPPSDEQLKSGTASVVCLLNNFYPREAKVQWKVDNALQSGNSQESVTEQDSKDSTYSLSSTLTLSKADYEKHKVYACEVTHQGLSSPVTKSFNRGEC
notes: as for B1
B7: CL-82556 (antibody, human IgG4 S228P, kappa, V domains shown)
VH: QVQLVESGGGVVQPGRSLRLSCAASGFTFYSYGMHWVRQAPGKGLEWVAVIWYGGTNKYYADSVKGRFTISRDNSKNTLYLQMNSLTAEDTAVYYCARGQLERRRGGLNIWGQGTMVTVSS
VL: DIQMTQSPSSLSASVGDRVTITCRASQGVRDDLGWYQQKPGKAPKRLIYAASNLQSGVPSRFSGSGSGTEFTLTIGSLQPEDFATYYCLQHNSYPFTFGPGTKVDIKR
notes: as for B1
B8: CL-82495 (antibody, human IgG4 S228P, kappa, V domains shown)
VH: QVQLVESGGGVVQPGRSLRLSCEASGFTLSSYGMHWVRQAPGKGLEWVAVIWNDGSNKYSADSVKGRFTISRDNSKNTLYLQMNRLRAEDTAVYYCARGGGYYGSGSHYRGYYYYGMDVWGQGTTVTVSS
VL: B7 VL with V29I, D31N, N53S, G76S, F96W, P100Q, D105E
notes: as for B1
B9: CL-82523 (antibody, human IgG4 S228P, kappa, V domains shown)
VH: EVQLVESGGGLVQPGGSLRLSCAASGFTFSNYAMSWVRQAPRKGLEWVSVISGSGGRTNYAGSVKGRFSITRDNSKNTLYLQMNSLRAEDTAVYYCVKGQLERRYYYYYGMDVWGQGITVTVSS
VL: B7 VL with V29I, D31N, N53S, G76S, F96L, P100G, D105E
notes: as for B1
B10: CL-148712 (antibody, human IgG4 S228P, kappa, V domains shown)
VH: EVQLVESGGDLVQPGGSLRLSCAASGFTFYSYAMNWVRQAPGKGLKWVSGISGSGDITYYADSVKGRFTISRDNSKNTLYLQMHSLRAEDTAVYYCAKGQLERRYYKYYGMDVWGQGTTVTVSS
VL: DIQMTQSPSSLSASVGDRVTITCRANQGIRNDLGWYQQKPGKAPKRLIYGASSLKSGVPSRFSGSGSGTEFTLTISSLQPEDFATYYCLQQNSYPLTFGGGTKVEIKR
B11: CL-82562 (antibody, human IgG4 S228P, kappa, V domains shown)
VH: QVQLVESGGGVVQPGRSLRLSCTASGFTFSNYAMHWVRQAPGKGLEWVAVISYDGSNKYCADSVKGRFTISRDNSKNTLYLQMNSLRAEDTAVYYCARGPLARRHYYYYGMDVWGQGTTVTVSS
VL: B10 VL with N26S, K55Q, Q91H, L96R, G100Q
notes: as for B1
B12: CL-82580 (antibody, human IgG4 S228P, kappa, V domains shown)
VH: QVQLVQSGAEVKKPGASVKVSCRASGYTFTNYDINWVRQATGQGLEWMGWMNPNSGNTGYAQKFQGRVTMTRNTSISAAYMELSSLRSEDTAVYYCARGRGYYGSGSRYRGYYYYGMDVWGQGTTVTVSS
VL: not shown
notes: as for B1
B13: CL-82551 (antibody, human IgG4 S228P, kappa, V domains shown)
VH: B12 VH with R23K, N31S, A78T, R108H, M117L
VL: B2 VL with N31S, E55K, I75V, F94Y
notes: as for B1
B14: CL-82541 (antibody, human IgG4 S228P, kappa, V domains shown)
VH: QVQLQESGPGLVKPSQTLSLTCTVSGGSISSGRYYWSWIRQLPGKGLEWIGYISYSGNPFYSPSLKSRVTISVDTSENQFSLKLSSVTAADTAVYYCARDRRIPMLRGVKGYYYGMDVWGQGTTVTVSS
VL: not shown
notes: as for B1
B15: CL-82558 Fab fragment (Fab, V domains shown)
VH: B14 VH with R33G, L42V, P59T, Q79K, K83R, S85T, Y96F, M116L
VL: DIVMTQSPLSLPVIPGEPASISCRSSQSLLHRNGYKYLDWYLQKPGQSPQLLIYLGSNRASGVPARFSGSGSGTDFTLKISRVEAEDVGVYYCMQALQTPWTFGQGTKVEIK
notes: Purified Fab fragment

What was measured:
[1] = biological target: T1, human CXCR4 (cell-expressed) (human, UniProt P61073 1-352); assay: cell-based or functional assay
[2] = biological target: T2, terbium-labelled SNAP-CXCR4 on HEK-293 cells (Cisbio C1TT1CXCR4) (human, UniProt P61072 1-352 (Pan troglodytes entry), terbium label on the SNAP tag); assay: TR-FRET (Tag-lite) competition with AlexaFluor 647-CXCL12 on terbium-labelled SNAP-CXCR4 HEK-293 cells
T2 construct: Bought assay-ready cells; also called CXCR4 expressing cells; not shown: SNAP tag

[3] = biological target: T1, human CXCR4 (cell-expressed); assay: cell-based or functional assay; remark: listed apart in the source
[4] = biological target: T3, biotinylated CXCR4-virus like particle (Integral Molecular, Lot INT-1793B) (human, UniProt P61073 1-352, VLP biotinylated, sites not stated); assay: SPR (Biacore 8K), biotinylated CXCR4 VLP captured on SA chip, Fab as analyte, 25 C, 1:1 model
T3 construct: also called hCXCR4 VLP; CXCR4 VLP

Row | Binder | % Max Inhibition, cAMP HTRF assay, CXCR4 BacMam HEK-293 cells [1] | IC50, cAMP HTRF assay, CXCR4 BacMam HEK-293 cells, 5.5 nM CXCL12 [1] | % Max Inhibition [2] | IC50 [2] | % Max Inhibition, beta-arrestin reporter assay, Tango CXCR4-bla U2OS cells [3] | IC50, beta-arrestin reporter assay, Tango CXCR4-bla U2OS cells, 30 nM CXCL12 [3] | Kd [4] | koff [4] | kon [4]
1 | B1 | 92% | 29 nM | 98% | 0.92 nM | 102% | 0.24 nM |  |  | 
2 | B2 | 88% | 44 nM | 96% | 1.47 nM | 85.6% | 1 nM |  |  | 
3 | B3 | 79% | 34 nM | 96% | 1.06 nM | 89.6% | 0.84 nM |  |  | 
4 | B4 |  | > 1000 nM | 98% | 1.2 nM | 85% | > 120 nM |  |  | 
5 | B5 | 103% | 91 nM |  |  | 86.8% | 9.12 nM |  |  | 
6 | B6 | 91% | 28 nM | 98% | 0.72 nM | 94% | 0.17 nM |  |  | 
7 | B7 | 94% | 17 nM | 99% | 0.7 nM | 101% | 0.14 nM |  |  | 
8 | B8 | 96% | 27 nM | 100% | 1.71 nM | 98.9% | 2.08 nM |  |  | 
9 | B9 | 87% | 24 nM | 101% | 0.55 nM | 101% | 0.08 nM |  |  | 
10 | B10 | 105% | 19 nM |  |  | 98.4% | 0.19 nM |  |  | 
11 | B11 | 92% | 99 nM | 100% | 0.86 nM | 101% | 0.52 nM |  |  | 
12 | B12 | 90% | 46 nM | 97% | 1.41 nM | 100% | 1.15 nM |  |  | 
13 | B13 | 92% | 39 nM | 98% | 1.21 nM | 98.2% | 1.56 nM |  |  | 
14 | B14 | 87% | 74 nM | 97% | 1.16 nM | 97.2% | 0.38 nM |  |  | 
15 | B15 |  |  |  |  |  |  | 0.67 nM | 0.00155 s⁻¹ | 2.32e+06 M⁻¹ s⁻¹
